Results reported in patent publication US20190247432A1 (published 2019).

Molecular target: T1, NY-ESO-1 (the LAGE-1S transcript variant shares the same epitope) peptide on HLA-A*02:01 (human)
T1 peptide: SLLMWITQC
Experiment: multimer staining

B1: 8F NY-ESO-1 TCR (TCR, V domains shown)
Valpha: EEDPQALSIQEGENATMNCSYKTSINNLQWYRQNSGRGLVHLILIRSNEREKHSGRLRVTLDTSKKSSSLLITASRAADTASYFCATDGAGKSTFGDGTTLTVKP
Vbeta: VIQSPRHEVTEMGQEVTLRCKPISGHDYLFWYRQTMMRGLELLIYFNNNVPIDDSGMPEDRFSAKMPNASFSTLKIQPSEPRDSAVYFCASTIGAQPQHFGDGTRLSIL
binding result: recognises
